Laboratory results published in US20220185907A1.

What was measured:
[1] = target: CD38 on cells (Raji, Daudi, REH, CD38-transfected HEK293) (human) (UniProt P28907); assay: flow cytometry on Raji cells; top asymptote fixed at about the maximum response of Darzalex
[2] = target: CD38 on cells (Raji, Daudi, REH, CD38-transfected HEK293) (human) (UniProt P28907); assay: flow cytometry on Raji cells (express CD19 and CD38)
[3] = target: CD38 on cells (Raji, Daudi, REH, CD38-transfected HEK293) (human) (UniProt P28907); assay: flow cytometry on Raji cells (express CD19 and CD38), 11 concentrations from 30 ug/mL

Adjusted EC50 [1]: 1.27 nM
EC50 [2]: 1.27 nM
EC50 [3]: 0.195 µg/mL
Max MFI [3]: 4.02e+06 MFI
Substance: Darzalex® (CD38 control) (antibody)
